Source: patent publication US20040121362A1

Key:
[1] = biological target: Flag-RAI-3 recombinant protein expressed in the stable Flag-RAI-3 CHO cell line (CHO/NFAT G alpha 15), clone B8 (human) (UniProt Q8NFJ5); assay: FACS, clone B8 against parental CHO
[2] = biological target: Flag-RAI-3 recombinant protein expressed in the stable Flag-RAI-3 CHO cell line (CHO/NFAT G alpha 15), clone B8 (human) (UniProt Q8NFJ5); assay: FACS, gating 100%; parental CHO mean signal 4.82

Sequence of UniProt Q8NFJ5 (Q8NFJ5 other isoform, or with tags, fused parts or gaps): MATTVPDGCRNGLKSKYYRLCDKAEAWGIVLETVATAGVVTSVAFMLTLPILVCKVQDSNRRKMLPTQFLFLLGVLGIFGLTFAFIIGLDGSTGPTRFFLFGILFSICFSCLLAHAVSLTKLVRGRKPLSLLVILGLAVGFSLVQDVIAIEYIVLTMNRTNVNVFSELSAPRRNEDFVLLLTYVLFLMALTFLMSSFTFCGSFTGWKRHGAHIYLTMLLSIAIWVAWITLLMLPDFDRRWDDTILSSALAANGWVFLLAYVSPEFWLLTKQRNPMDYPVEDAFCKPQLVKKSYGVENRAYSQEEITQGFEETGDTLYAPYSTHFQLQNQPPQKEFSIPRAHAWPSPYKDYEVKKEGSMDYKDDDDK

With “Anti-FLAG FITC (Sigma, Catalog #F4049) (antibody)” the fold over background [1] was 7 fold and the mean signal [2] was 35.
